From the supplement of paper PMC11246515
± gives the standard deviation of the averaged measurements.

Assay: total protein half-life in vivo (active degradation + dilution); higher = more stable protein
[1] = E. coli NCM3722 delta-clpP delta-lon delta-hslV, growth: N-lim chemostat, doubling time 6 h
[2] = E. coli NCM3722 delta-clpP, growth: N-lim chemostat, doubling time 6 h
[3] = E. coli NCM3722 delta-hslV, growth: N-lim chemostat, doubling time 6 h
[4] = E. coli NCM3722 delta-lon, growth: N-lim chemostat, doubling time 6 h
[5] = E. coli NCM3722 delta-smpB, growth: N-lim chemostat, doubling time 6 h
[6] = wild type E. coli NCM3722, growth: C-lim chemostat, doubling time 3 h
[7] = wild type E. coli NCM3722, growth: C-lim chemostat, doubling time 6 h
[8] = wild type E. coli NCM3722, growth: C-lim chemostat, doubling time 12 h
[9] = wild type E. coli NCM3722, growth: N-lim chemostat, doubling time 6 h
[10] = wild type E. coli NCM3722, growth: N-lim chemostat, doubling time 12 h
[11] = wild type E. coli NCM3722, growth: P-lim chemostat, doubling time 6 h
[12] = wild type E. coli NCM3722, growth: P-lim chemostat, doubling time 12 h

Sequence	total protein half-life in vivo [1]	total protein half-life in vivo [2]	total protein half-life in vivo [3]	total protein half-life in vivo [4]	total protein half-life in vivo [5]	total protein half-life in vivo [6]	total protein half-life in vivo [7]	total protein half-life in vivo [8]	total protein half-life in vivo [9]	total protein half-life in vivo [10]	total protein half-life in vivo [11]	total protein half-life in vivo [12]
MINVLIIDDDAMVAELNRRYVAQIPGFQCCGTASTLEKAKEIIFNSDTPIDLILLDIYMQKENGLDLLPVLHNARCKSDVIVISSAADAATIKDSLHYGVVDYLIKPFQASRFEEALTGWRQKKMALEKHQYYDQAELDQLIHGSSSNEQDPRRLPKGLTPQTLRTLCQWIDAHQDYEFSTDELANEVNISRVSCRKYLIWLVNCHILFTSIHYGVTGRPVYRYRIQAEHYSLLKQYCQ [P0AD01]	5.41 ± 0.33 h	2.86 h	4.1 ± 0.41 h	3.42 ± 0.16 h	3.1 ± 0.27 h	1.69 ± 0.17 h	3.27 ± 0.38 h	5.01 ± 0.094 h	3.51 ± 0.13 h	5.76 ± 0.53 h	1.58 h	3.84 ± 0.61 h
MIQYLNVFFYDIYPYICATVFFLGSWLRYDYGQYTWRASSSQMLDKRGMVIWSNLFHIGILGIFFGHLFGMLTPHWMYAWFLPVAAKQLMAMVLGGICGVLTLIGGAGLLWRRLTNQRVRATSTTPDIIIMSILLIQCLLGLSTIPFSAQYPDGSEMMKLVGWAQSIVTFRGGSSEMLNGVAFVFRLHLVLGMTIFLLFPFTRLVHVWSAPFEYFTRRYQIVRSRR [P0AF32]	6.36 ± 0.3 h		7.27 ± 0.96 h	5.71 ± 0.33 h			6.54 h	11 h		10.7 ± 1.9 h		11.3 ± 1.8 h
MIRFAVIGTNWITRQFVEAAHESGKYKLTAVYSRSLEQAQHFANDFSVEHLFTSLEAMAESDAIDAVYIASPNSLHFSQTQLFLSHKINVICEKPLASNLAEVDAAIACARENQVVLFEAFKTACLPNFHLLRQALPKVGKLRKVFFNYCQYSSRYQRYLDGENPNTFNPAFSNGSIMDIGFYCLASAVALFGEPKSVQATASLLASGVDAQGVVVMDYGDFSVTLQHSKVSDSVLASEIQGEAGSLVIEKLSECQKVCFVPRGSQMQDLTQPQHINTMLYEAELFATLVDEHLVDHPGLAVSRITAKLLTEIRRQTGVIFPADSVKL	4.844 ± 0.015 h	4.33 ± 0.36 h	4.29 ± 0.31 h	4.616 ± 0.03 h	4.18 ± 0.54 h	2.56 ± 0.41 h	5.28 ± 0.46 h	9.44 ± 1.5 h	4.08 ± 0.11 h	6.53 ± 1.1 h	6.55 ± 1 h	10.8 ± 0.27 h
MIRISDAAQAHFAKLLANQEEGTQIRVFVINPGTPNAECGVSYCPPDAVEATDTALKFDLLTAYVDELSAPYLEDAEIDFVTDQLGSQLTLKAPNAKMRKVADDAPLMERVEYMLQSQINPQLAGHGGRVSLMEITEDGYAILQFGGGCNGCSMVDVTLKEGIEKQLLNEFPELKGVRDLTEHQRGEHSYY	4.529 ± 0.0069 h	3.82 ± 0.32 h	2.533 ± 0.019 h	2.97 ± 0.2 h	2.54 ± 0.25 h	2.32 ± 0.16 h	3.4 ± 0.13 h	5.07 ± 0.12 h	2.55 ± 0.36 h	3.63 ± 0.19 h	3.01 ± 0.56 h	6.09 ± 0.23 h
MIRQVIQRISNPEASIESLQERRFWLQCERAYTWQPIYQTCGRLMAVELLTVVTHPLNPSQRLPPDRYFTEITVSHRMEVVKEQIDLLAQKADFFIEHGLLASVNIDGPTLIALRQQPKILRQIERLPWLRFELVEHIRLPKDSTFASMCEFGPLWLDDFGTGMANFSALSEVRYDYIKIARELFVMLRQSPEGRTLFSQLLHLMNRYCRGVIVEGVETPEEWRDVQNSPAFAAQGWFLSRPAPIETLNTAVLAL						0.512 ± 0.23 h						
MIRTMLQGKLHRVKVTHADLHYEGSCAIDQDFLDAAGILENEAIDIWNVTNGKRFSTYAIAAERGSRIISVNGAAAHCASVGDIVIIASFVTMPDEEARTWRPNVAYFEGDNEMKRTAKAIPVQVA [P0A790]	4.79 h		1.54 ± 0.23 h	6.3 h	1.43 h	1.68 ± 0.15 h	3.1 h		2.24 h	2.2 h	2.12 h	4.54 ± 0.65 h
MIRVACVGITVMDRIYYVEGLPTESGKYVARNYTEVGGGPAATAAVAAARLGAQVDFIGRVGDDDTGNSLLAELESWGVNTRYTKRYNQAKSSQSAIMVDTKGERIIINYPSPDLLPDAEWLEEIDFSQWDVVLADVRWHDGAKKAFTLARQAGVMTVLDGDITPQDISELVALSDHAAFSEPGLARLTGVKEMASALKQAQTLTNGHVYVTQGSAGCDWLENGGRQHQPAFKVDVVDTTGAGDVFHGALAVALATSGDLAESVRFASGVAALKCTRPGGRAGIPDCDQTRSFLSLFV	6.62 ± 1.4 h					2.49 ± 0.19 h	5.95 ± 1.4 h	7.92 ± 0.52 h				
MISAFDIFKIGIGPSSSHTVGPMNAGKSFIDRLESSGLLTATSHIVVDLYGSLSLTGKGHATDVAIIMGLAGNSPQDVVIDEIPAFIELVTRSGRLPVASGAHIVDFPVAKNIIFHPEMLPRHENGMRITAWKGQEELLSKTYYSVGGGFIVEEEHFGLSHDVETSVPYDFHSAGELLKMCDYNGLSISGLMMHNELALRSKAEIDAGFARIWQVMHDGIERGMNTEGVLPGPLNVPRRAVALRRQLVSSDNISNDPMNVIDWINMYALAVSEENAAGGRVVTAPTNGACGIIPAVLAYYDKFRRPVNERSIARYFLAAGAIGALYKMNASISGAEVGCQGEIGVACSMAAAGLTELLGGSPAQVCNAAEIAMEHNLGLTCDPVAGQVQIPCIERNAINAVKAVNAARMAMRRTSAPRVSLDKVIETMYETGKDMNDKYRETSRGGLAIKVVCG	4.67 h						2.13 h	2.34 h				
MISTVALFWALCVVCIVNMARYFSSLRALLVVLRNCDPLLYQYVDGGGFFTSHGQPNKQVRLVWYIYAQRYRDHHDDEFIRRCERVRRQFILTSALCGLVVVSLIALMIWH [P0A8S5]	0.94 h	0.778 h				0.797 h	> 8 h					
MITHNFNTLDLLTSPVWIVSPFEEQLIYANSAAKLLMQDLTFSQLRTGPYSVSSQKELPKYLSDLQNQHDIIEILTVQRKEEETALSCRLVLRKLTETEPVIIFEGIEAPATLGLKASRSANYQRKKQGFYARFFLTNSAPMLLIDPSRDGQIVDANLAALNFYGYNHETMCQKHTWEINMLGRRVMPIMHEISHLPGGHKPLNFVHKLADGSTRHVQTYAGPIEIYGDKLMLCIVHDITEQKRLEEQLEHAAHHDAMTGLLNRRQFYHITEPGQMQHLAIAQDYSLLLIDTDRFKHINDLYGHSKGDEVLCALARTLESCARKGDLVFRWGGEEFVLLLPRTPLDTALSLAETIRVSVAKVSISGLPRFTVSIGVAHHEGNESIDELFKRVDDALYRAKNDGRNRVLAA	6.16 h	1.51 h				0.79 ± 0.18 h	1.87 ± 0.062 h	1.42 ± 0.21 h	1.31 h			
MITNYEATVVTTDDIVHEVNLEGKRIGYVIKTENKETPFTVVDIDGPSGNVKTLDEGVKKMCLVHIGKNLPAEKKAEFLATLIAMKLKGEI							5.13 h	10.3 h				
